In the experiment the target is acetylcholine receptor. In words: SPR, AchR immobilized on CM5 chip, peptide at 10 uM. (Surface plasmon resonance follows binding to a sensor surface in real time, without labels.)

RYSKK [5mer-721] yielded a Binding affinity (RU) of 22 RU.

KATMK [5mer-726] yielded a Binding affinity (RU) of 33 RU.

KCKVK [5mer-1020] came in with a Binding affinity (RU) of 12 RU. With RNHNK [5mer-701], the Binding affinity (RU) was 22 RU. The result for KWLRRR [6mer-2-390] reads 145 RU; that for RKNKR [5mer-1014], 23 RU. KRFQKK [6mer-2-388] showed a Binding affinity (RU) of 139 RU. With KISER [5mer-719] the figure was 21 RU. With KCDNK [5mer-1010] the figure was 16 RU; with RNKKK [5mer-718], 19 RU. With RCTWK [5mer-1017] the figure was 24 RU; with RSIYRK [6mer-2-397], 154 RU. The molecule KIADK [5mer-1022] showed a Binding affinity (RU) of 29 RU. The result for KITHK [5mer-1021] reads 26 RU; that for KTDMK [5mer-1011], 25 RU; that for RFMGK [5mer-704], 28 RU. RGLQRK [6mer-2-393] came in with a Binding affinity (RU) of 145 RU. On to KINVR [5mer-716], for which the Binding affinity (RU) was 25 RU. The result for KTKFK [5mer-999] reads 19 RU; that for KLVLKR [6mer-2-394], 141 RU. With KIEAK [5mer-707] the figure was 32 RU; with RFKFK [5mer-1019], 28 RU. The result for RAWER [5mer-700] reads 17 RU. KWLCKK [6mer-2-387]: the Binding affinity (RU) amounted to 146 RU. The result for KEPER [5mer-1006] reads 17 RU; that for RSILRK [6mer-2-401], 153 RU; that for KHCWR [5mer-1000], 20 RU.

Molecule KPNWR [5mer-703] yielded a Binding affinity (RU) of 22 RU.

The molecule KDSNR [5mer-1008] showed a Binding affinity (RU) of 11 RU. With KIDNK [5mer-1024] the figure was 26 RU; with KPCGK [5mer-1001], 33 RU; with RHTIR [5mer-709], 27 RU. With RQILKR [6mer-2-392] the figure was 149 RU; with RQIRRR [6mer-2-400], 154 RU; with RNAVR [5mer-1026], 20 RU. The result for RNADR [5mer-725] reads 19 RU; that for RYCKK [5mer-1023], 13 RU; that for KNHKK [5mer-722], 33 RU. As to KISHK [5mer-702], the Binding affinity (RU) came out at 30 RU. With KMDAR [5mer-727] the figure was 31 RU; with RHKVR [5mer-1012], 22 RU; with RPCAK [5mer-714], 32 RU. The result for KMCAK [5mer-1009] reads 29 RU; that for RTHGR [5mer-1005], 30 RU.

KCKFR [5mer-717] gave a Binding affinity (RU) of 20 RU. With KDPKR [5mer-720] the figure was 32 RU. The result for RWLTRR [6mer-2-399] reads 148 RU. As to KCCVK [5mer-1013], the Binding affinity (RU) worked out at 19 RU. In turn, KQYQKR [6mer-2-391] had a Binding affinity (RU) of 141 RU. With RHAKK [5mer-705] the figure was 15 RU.

Molecule KWRYRR [6mer-2-395] displayed a Binding affinity (RU) of 148 RU. The result for RKMAK [5mer-706] reads 27 RU; that for KTTAK [5mer-724], 14 RU.

KSLYKK [6mer-2-389] returned a Binding affinity (RU) of 153 RU.

Regarding RADFK [5mer-712], the Binding affinity (RU) is 18 RU. With RQQRRR [6mer-2-398] the figure was 141 RU; with KEKAR [5mer-710], 21 RU. The result for RHKWK [5mer-1025] reads 25 RU; that for KYPKK [5mer-713], 16 RU.

On to RASPR [5mer-723], for which the Binding affinity (RU) is 22 RU. With KWLQRR [6mer-2-396] the figure was 122 RU; with KCNGR [5mer-715], 22 RU.

Molecule KYTMR [5mer-1016] yielded a Binding affinity (RU) of 28 RU. For the molecule RDADR [5mer-1004], the Binding affinity (RU) stood at 30 RU. The result for KPKAR [5mer-708] reads 20 RU. As for KECIK [5mer-711], the Binding affinity (RU) was 32 RU.

For RMTVR [5mer-1003], the Binding affinity (RU) stood at 11 RU. With RDMMR [5mer-1007] the figure was 30 RU; with KEDNK [5mer-1002], 12 RU. Take KKNER [5mer-699]: the Binding affinity (RU) was determined as 12 RU.

On to KFWAK [5mer-1018], for which the Binding affinity (RU) turned out to be 20 RU. Consider RCWMK [5mer-1015], for which the Binding affinity (RU) amounted to 30 RU.
